According to patent publication US20140178364A1:

Target: interleukin 3 receptor α (IL-3Rα) chain (human) (UniProt P26951)
Assay: cell-based or functional assay

UniProt P26951, sequence (P26951 20-378): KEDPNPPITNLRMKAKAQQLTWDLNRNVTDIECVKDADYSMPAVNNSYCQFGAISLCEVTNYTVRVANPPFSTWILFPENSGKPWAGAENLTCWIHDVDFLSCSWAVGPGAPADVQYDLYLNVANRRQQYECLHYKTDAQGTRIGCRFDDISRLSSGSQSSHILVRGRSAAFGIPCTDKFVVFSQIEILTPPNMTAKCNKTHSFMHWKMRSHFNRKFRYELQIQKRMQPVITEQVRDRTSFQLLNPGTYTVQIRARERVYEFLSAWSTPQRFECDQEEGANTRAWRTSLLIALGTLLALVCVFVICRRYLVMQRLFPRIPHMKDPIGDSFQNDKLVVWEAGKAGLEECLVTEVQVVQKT

pDCs (% of total cells remaining in culture), 4 h, 10 µg/ml antibody on human PBMC (% of total cells): 0.1 | pDCs (% of total cells remaining in culture), 24 h, 10 µg/ml antibody on human PBMC (% of total cells): 0.02 | pDCs (% of total cells remaining in culture), 48 h, 10 µg/ml antibody on human PBMC (% of total cells): 0.005
Substance: chimeric version of 7G3 with a human IgG1 constant domain (ch7G3) (antibody)
